One block for each molecule: values may come before it.
How the values were obtained:
[1] = target: T1, zebrafish P2X4.1 receptor (zfP2X4) (Danio rerio, UniProt F8W463); experiment: whole-cell patch clamp of transfected tsA201 cells; format: cell-based
T1 sequence (F8W463 1-389): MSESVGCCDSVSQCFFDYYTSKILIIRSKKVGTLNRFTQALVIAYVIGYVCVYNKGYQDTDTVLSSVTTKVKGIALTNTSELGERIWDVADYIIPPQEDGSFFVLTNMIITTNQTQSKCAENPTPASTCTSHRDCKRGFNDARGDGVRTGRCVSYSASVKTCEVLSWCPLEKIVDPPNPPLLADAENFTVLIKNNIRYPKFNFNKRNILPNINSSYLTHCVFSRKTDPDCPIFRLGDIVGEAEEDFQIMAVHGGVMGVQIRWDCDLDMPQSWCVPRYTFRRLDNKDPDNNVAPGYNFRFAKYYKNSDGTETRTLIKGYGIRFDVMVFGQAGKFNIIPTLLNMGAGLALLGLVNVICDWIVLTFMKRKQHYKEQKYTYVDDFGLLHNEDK

[2] = target: ΔzfP2X4-A (zebrafish P2X4.1 receptor with amino- and carboxyl-terminal deletions) (zebrafish) (UniProt F8W463); experiment: crystal structure
[3] = target: ΔzfP2X4-B (ΔzfP2X4-A with C51F/N78K/N187R) (zebrafish) (UniProt F8W463); experiment: crystal structure

EC50 [1]: ~800 µM
Molecule: Nc1ncnc2c1ncn2[C@@H]1O[C@H](COP(=O)(O)OP(=O)(O)OP(=O)(O)O)[C@@H](O)[C@H]1O [ATP]

stoichiometry N [2]: 3
Molecule: ΔzfP2X4-A (zebrafish P2X4.1 receptor with amino- and carboxyl-terminal deletions) (from UniProt F8W463 1-389)

stoichiometry N [3]: 3
Molecule: ΔzfP2X4-B (ΔzfP2X4-A with C51F/N78K/N187R) (from UniProt F8W463 1-389) (receptor)

— paper PMC2720809 (Nature, 2009)
